Consider three substances from article PMC7005700.

One test addresses USF-1 (UniProt P22415). Put plainly: co-immunoprecipitation, immunoblot. The following applies: reference: wild type; sites T505.
Test [1] has as its target USF-1 overexpressed in 293FT cells (UniProt P22415).
The target is the same in test [2]. The source holds these as a separate data set.

Chain of USF-1 overexpressed in 293FT cells (P22415 whole entry): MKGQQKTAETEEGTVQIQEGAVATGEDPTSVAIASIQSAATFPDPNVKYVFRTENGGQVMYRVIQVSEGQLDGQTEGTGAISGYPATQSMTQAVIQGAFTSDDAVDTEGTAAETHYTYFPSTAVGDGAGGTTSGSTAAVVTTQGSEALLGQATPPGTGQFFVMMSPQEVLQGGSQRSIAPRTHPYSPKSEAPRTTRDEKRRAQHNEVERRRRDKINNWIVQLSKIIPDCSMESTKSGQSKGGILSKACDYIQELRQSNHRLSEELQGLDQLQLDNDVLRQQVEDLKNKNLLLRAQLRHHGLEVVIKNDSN

In the case of JMJD1C (from UniProt Q15652) T505A, the “binding against the reference” value with USF-1 is “lost”.

For the substance JMJD1C T505D mutant, Q15652 1-2540, the ChIP-qPCR enrichment at the FAS promoter (FAS promoter luc construct) upon insulin treatment in test [1] stood at 17 fold.

In test [1], WT JMJD1C, Q15652 1-2540 returned a ChIP-qPCR enrichment at the FAS promoter (FAS promoter luc construct) upon insulin treatment of 12 fold. The same substance showed an FAS promoter (-444-FAS promoter-luciferase) activity in 293FT cells co-transfected with JMJD1C along with USF-1 in test [2] of 27 fold.
